Tests used:
[1] = biological target: SHP2-C SH2; test: SH2 binding enrichment of the phosphorylated peptide, bacterial display (enrichment ratio); higher = better substrate or ligand; peptides without Tyr show the background
[2] = biological target: c-Src SH2; test: as above
[3] = biological target: Grb2 SH2 (UniProt P62993); test: as above
[4] = biological target: FGFR3 (UniProt P22607); test: phosphorylation enrichment, bacterial display (enrichment ratio); higher = better substrate or ligand; peptides without Tyr show the background
Sequence of FGFR3 (P22607 whole entry, looked up): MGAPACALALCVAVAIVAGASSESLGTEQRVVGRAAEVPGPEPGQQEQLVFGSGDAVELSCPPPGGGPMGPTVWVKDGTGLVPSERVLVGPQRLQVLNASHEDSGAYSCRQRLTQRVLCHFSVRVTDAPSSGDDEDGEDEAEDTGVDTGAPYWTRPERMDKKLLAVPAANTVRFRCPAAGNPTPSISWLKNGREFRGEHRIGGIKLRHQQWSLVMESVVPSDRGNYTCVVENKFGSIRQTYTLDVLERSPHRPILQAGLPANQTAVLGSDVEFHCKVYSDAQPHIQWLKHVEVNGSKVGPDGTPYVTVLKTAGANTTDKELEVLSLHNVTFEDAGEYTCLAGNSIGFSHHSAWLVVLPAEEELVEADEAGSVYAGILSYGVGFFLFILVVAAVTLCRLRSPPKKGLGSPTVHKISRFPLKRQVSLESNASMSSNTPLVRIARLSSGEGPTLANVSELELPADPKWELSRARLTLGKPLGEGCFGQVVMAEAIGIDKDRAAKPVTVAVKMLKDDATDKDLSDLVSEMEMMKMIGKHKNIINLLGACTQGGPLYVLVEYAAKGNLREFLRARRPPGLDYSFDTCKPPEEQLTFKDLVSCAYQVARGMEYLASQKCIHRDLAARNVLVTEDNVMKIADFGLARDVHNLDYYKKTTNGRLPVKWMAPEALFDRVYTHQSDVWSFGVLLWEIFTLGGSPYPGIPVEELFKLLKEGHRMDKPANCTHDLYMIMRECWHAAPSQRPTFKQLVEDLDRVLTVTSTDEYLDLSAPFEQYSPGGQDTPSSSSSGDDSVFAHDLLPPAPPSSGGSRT

[5] = system: AncSZ; test: as above
[6] = biological target: Fes (UniProt P07332); test: as above
Sequence of Fes (P07332 whole entry, looked up): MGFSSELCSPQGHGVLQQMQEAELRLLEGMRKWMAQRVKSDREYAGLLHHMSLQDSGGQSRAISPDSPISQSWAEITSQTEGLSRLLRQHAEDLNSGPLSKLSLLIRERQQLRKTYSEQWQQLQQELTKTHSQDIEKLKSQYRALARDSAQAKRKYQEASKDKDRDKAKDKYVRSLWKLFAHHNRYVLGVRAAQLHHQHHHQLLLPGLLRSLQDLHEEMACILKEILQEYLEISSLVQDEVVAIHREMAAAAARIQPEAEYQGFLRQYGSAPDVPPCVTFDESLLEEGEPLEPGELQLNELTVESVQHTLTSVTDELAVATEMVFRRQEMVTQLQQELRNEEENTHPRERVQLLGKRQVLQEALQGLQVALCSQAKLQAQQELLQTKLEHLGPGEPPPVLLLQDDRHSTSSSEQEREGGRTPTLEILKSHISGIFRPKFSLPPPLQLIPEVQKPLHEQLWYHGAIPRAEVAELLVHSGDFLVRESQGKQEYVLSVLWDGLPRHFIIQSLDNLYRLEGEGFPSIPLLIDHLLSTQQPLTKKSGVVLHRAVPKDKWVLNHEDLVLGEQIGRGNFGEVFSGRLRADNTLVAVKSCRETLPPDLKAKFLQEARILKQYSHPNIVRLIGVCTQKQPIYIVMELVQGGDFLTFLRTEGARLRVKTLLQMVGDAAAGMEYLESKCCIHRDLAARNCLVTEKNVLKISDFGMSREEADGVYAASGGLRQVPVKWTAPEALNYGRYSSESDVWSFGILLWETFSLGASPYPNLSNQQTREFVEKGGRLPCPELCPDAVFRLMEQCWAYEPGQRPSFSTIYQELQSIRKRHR

[7] = biological target: Jak2 (UniProt O60674); test: as above
Sequence of Jak2 (O60674 whole entry, looked up): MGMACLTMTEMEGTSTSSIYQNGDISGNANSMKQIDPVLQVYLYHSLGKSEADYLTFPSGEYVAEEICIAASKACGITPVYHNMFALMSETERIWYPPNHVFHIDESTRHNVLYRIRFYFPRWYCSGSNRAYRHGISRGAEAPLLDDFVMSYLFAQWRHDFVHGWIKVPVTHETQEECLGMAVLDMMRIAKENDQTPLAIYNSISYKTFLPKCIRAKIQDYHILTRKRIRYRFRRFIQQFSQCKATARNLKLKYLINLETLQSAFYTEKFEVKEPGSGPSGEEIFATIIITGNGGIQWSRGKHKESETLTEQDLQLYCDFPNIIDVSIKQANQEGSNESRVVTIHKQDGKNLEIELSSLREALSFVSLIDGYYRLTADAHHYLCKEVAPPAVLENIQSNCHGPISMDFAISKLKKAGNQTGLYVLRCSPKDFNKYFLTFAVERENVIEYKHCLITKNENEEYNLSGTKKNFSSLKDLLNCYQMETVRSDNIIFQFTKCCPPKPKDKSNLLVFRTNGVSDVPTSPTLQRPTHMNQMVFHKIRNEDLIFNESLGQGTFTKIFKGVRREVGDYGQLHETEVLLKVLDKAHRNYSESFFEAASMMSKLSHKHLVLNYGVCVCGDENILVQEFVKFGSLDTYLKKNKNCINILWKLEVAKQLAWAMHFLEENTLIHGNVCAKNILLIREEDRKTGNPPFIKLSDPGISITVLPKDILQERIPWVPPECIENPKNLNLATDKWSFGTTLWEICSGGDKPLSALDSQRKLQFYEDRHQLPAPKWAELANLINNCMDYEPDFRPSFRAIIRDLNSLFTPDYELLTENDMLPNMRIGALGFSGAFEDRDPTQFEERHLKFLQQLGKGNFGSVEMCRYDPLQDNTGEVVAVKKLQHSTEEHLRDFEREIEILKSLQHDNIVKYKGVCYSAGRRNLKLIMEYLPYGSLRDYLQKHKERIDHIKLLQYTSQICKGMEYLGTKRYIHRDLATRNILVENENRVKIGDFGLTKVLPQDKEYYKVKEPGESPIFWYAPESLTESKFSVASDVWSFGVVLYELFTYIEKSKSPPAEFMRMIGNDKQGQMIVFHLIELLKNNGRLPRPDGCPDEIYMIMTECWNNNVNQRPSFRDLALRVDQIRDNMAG

[8] = biological target: Fyn (UniProt P06241); test: as above
[9] = biological target: EPHB2 (UniProt P29323); test: as above
[10] = system: c-Abl (mouse); test: as above
[11] = system: Fer (mouse); test: as above
[12] = biological target: FGFR1 (UniProt P11362); test: as above
Sequence of FGFR1 (P11362 whole entry, looked up): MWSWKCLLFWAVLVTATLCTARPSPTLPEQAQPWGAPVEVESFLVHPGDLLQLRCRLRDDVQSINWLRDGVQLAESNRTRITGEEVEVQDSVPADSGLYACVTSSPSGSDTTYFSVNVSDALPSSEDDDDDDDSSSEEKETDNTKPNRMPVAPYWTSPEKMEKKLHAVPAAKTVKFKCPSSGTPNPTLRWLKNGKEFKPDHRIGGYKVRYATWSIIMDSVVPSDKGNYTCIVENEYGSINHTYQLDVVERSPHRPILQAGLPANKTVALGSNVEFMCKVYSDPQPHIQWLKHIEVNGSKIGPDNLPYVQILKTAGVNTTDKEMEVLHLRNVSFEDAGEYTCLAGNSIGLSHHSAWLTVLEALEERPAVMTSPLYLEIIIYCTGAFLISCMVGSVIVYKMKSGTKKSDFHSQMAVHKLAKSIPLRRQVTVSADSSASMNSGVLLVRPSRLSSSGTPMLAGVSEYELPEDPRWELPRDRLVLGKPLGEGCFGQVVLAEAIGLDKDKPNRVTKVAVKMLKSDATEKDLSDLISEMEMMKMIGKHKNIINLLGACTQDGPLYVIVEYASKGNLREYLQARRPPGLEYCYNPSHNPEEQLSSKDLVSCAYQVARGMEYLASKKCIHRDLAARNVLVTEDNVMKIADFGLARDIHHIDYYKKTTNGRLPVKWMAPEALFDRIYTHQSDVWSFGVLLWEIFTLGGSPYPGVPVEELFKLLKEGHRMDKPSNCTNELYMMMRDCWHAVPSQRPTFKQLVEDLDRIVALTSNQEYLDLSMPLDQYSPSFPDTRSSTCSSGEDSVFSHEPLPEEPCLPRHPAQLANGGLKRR

[13] = biological target: EPHB1 (UniProt P54762); test: as above
[14] = system: c-Src; test: as above
[15] = biological target: Hck (UniProt P08631); test: as above
[16] = biological target: MERTK (UniProt Q12866); test: as above
Sequence of MERTK (Q12866 whole entry, looked up, the tested form may be a part): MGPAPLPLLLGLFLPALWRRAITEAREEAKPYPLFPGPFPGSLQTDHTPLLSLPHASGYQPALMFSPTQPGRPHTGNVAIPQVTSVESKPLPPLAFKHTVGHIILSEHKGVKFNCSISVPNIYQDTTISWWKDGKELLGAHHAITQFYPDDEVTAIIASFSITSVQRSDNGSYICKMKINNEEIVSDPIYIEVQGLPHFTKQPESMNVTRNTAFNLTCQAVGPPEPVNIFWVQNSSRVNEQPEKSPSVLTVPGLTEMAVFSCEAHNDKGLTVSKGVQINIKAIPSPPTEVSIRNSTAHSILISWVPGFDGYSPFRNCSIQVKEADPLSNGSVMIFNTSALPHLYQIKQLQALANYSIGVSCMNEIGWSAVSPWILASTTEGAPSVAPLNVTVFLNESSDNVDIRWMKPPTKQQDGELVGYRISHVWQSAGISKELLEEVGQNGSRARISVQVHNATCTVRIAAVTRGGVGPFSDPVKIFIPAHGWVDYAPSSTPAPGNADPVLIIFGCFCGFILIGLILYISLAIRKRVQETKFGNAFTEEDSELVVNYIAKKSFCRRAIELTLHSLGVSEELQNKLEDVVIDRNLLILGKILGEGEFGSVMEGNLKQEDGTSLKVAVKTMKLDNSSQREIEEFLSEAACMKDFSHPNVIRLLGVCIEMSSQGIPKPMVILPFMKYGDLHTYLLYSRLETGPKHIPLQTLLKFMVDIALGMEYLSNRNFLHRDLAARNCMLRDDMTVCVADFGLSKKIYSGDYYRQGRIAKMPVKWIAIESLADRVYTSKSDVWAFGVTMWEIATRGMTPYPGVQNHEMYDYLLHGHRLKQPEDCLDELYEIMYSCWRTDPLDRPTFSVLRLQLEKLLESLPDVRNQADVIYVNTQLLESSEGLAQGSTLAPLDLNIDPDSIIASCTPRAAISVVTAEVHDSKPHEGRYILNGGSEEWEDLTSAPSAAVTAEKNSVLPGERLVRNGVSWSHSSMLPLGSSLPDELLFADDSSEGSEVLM
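Throughout, for SH2 binding enrichment of the phosphorylated peptide, bacterial display: peptide library displayed on the E. coli surface as eCPX fusions, selected cells deep-sequenced, score is each peptide's frequency after selection divided by its frequency in the input.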
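Throughout, for phosphorylation enrichment, bacterial display: 11-residue human phosphosite peptides and single-mutation variants displayed on the E. coli surface, counted by deep sequencing, each peptide's frequency after selection divided by its frequency in the unselected input library; frequency after pTyr selection over input frequency; kinase dosed for 20-30% of maximal phosphorylation in three min.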

Row | SH2 binding enrichment [1] | SH2 binding enrichment [2] | SH2 binding enrichment [3] | Sequence | phosphorylation enrichment [4] | phosphorylation enrichment [5] | phosphorylation enrichment [6] | phosphorylation enrichment [7] | phosphorylation enrichment [8] | phosphorylation enrichment [9] | phosphorylation enrichment [10] | phosphorylation enrichment [11] | phosphorylation enrichment [12] | phosphorylation enrichment [13] | phosphorylation enrichment [14] | phosphorylation enrichment [15] | phosphorylation enrichment [16]
1 | 0.884 | 0.801 | 0.961 | LEITWYPFDVE [RIPOR2_Y316] | 1.55 | 1.49 | 2.12 | 2.3 | 0.751 | 1.05 | 1.25 | 0.827 | 0.679 | 1.21 | 0.704 | 0.691 | 0.461
2 | 1.34 | 0.959 | 0.964 | IQVNAYFSPIH [ADSL_Y432_D430N] | 0.795 | 1.76 | 1.29 | 2.16 | 0.431 | 0.536 | 1.14 | 0.548 | 0.595 | 0.727 | 0.543 | 0.543 | 0.589
3 | 0.762 | 0.523 | 0.861 | AALLNYKAGRD [GRIN2A_Y737_V734L] | 0.494 | 0.623 | 0.687 | 0.508 | 0.494 | 0.465 | 0.454 | 0.384 | 0.508 | 0.409 | 0.472 | 0.527 | 0.468
4 | 0.711 | 0.523 | 0.791 | CTLLPYFSARV [DGKE_Y269_YF] | 0.736 | 0.987 | 1.11 | 1.09 | 0.453 | 0.615 | 1.11 | 0.515 | 0.518 | 0.613 | 0.43 | 0.508 | 0.424
5 | 0.693 | 0.433 | 0.748 | NESVDYRATFP [MET_Y1003] | 0.489 | 0.681 | 0.802 | 0.749 | 0.472 | 0.463 | 0.591 | 0.454 | 0.427 | 0.421 | 0.418 | 0.484 | 0.422
6 | 0.93 | 0.61 | 1.09 | QPEDIYHQTWA [GBA_Y244_G241E] | 4.93 | 2 | 1.09 | 0.955 | 7.34 | 0.673 | 9.69 | 3.02 | 6.95 | 0.843 | 5.92 | 4.47 | 3.42
7 | 0.747 | 0.623 | 0.959 | RLLRGHDQSAY [HLA-C_Y137_Y137H] | 0.455 | 0.632 | 0.587 | 0.754 | 0.336 | 0.336 | 0.597 | 0.387 | 0.417 | 0.403 | 0.361 | 0.549 | 0.371

The next lines start with the sequence.

Row | Sequence | SH2 binding enrichment [1] | SH2 binding enrichment [2] | SH2 binding enrichment [3] | phosphorylation enrichment [4] | phosphorylation enrichment [5] | phosphorylation enrichment [6] | phosphorylation enrichment [7] | phosphorylation enrichment [8] | phosphorylation enrichment [9] | phosphorylation enrichment [10] | phosphorylation enrichment [11] | phosphorylation enrichment [12] | phosphorylation enrichment [13] | phosphorylation enrichment [14] | phosphorylation enrichment [15] | phosphorylation enrichment [16]
8 | FSKRIYKGMVA [PCDH15_Y931] | 0.555 | 0.462 | 0.773 | 0.367 | 0.426 | 0.534 | 0.402 | 0.392 | 0.5 | 0.332 | 0.369 | 0.262 | 0.231 | 0.338 | 0.352 | 0.362
9 | DVLPEYKLQAP [KCNH2_Y388] | 0.625 | 0.508 | 1.02 | 0.728 | 0.911 | 0.861 | 0.659 | 0.53 | 0.557 | 0.693 | 0.427 | 0.48 | 0.548 | 0.405 | 0.519 | 0.432
10 | VMLENYSNLVS [ZFP69_Y109] | 0.555 | 0.669 | 0.851 | 0.608 | 0.819 | 0.781 | 0.49 | 0.563 | 1.24 | 0.39 | 0.556 | 0.654 | 1.49 | 0.363 | 0.49 | 0.375
11 | TRYDEYLEVTK [MAP1A_Y2217_H2214Y] | 0.506 | 1.02 | 0.777 | 0.872 | 1.31 | 1.25 | 1.16 | 0.519 | 0.884 | 0.909 | 0.592 | 0.901 | 0.98 | 0.538 | 0.539 | 0.425
12 | PYRFIYMAVQH [PTPN11_Y515_Q510P] | 1.12 | 0.759 | 1.07 | 1.76 | 1.92 | 2.08 | 1.08 | 5.01 | 2.45 | 1.67 | 2.9 | 1.87 | 3.56 | 3.36 | 5.48 | 2.14
13 | IGGHAYGDQYR [IDH1_Y135_R132G] | 0.548 | 0.416 | 0.776 | 0.382 | 0.52 | 0.59 | 0.431 | 0.382 | 0.368 | 0.386 | 0.448 | 0.364 | 0.405 | 0.36 | 0.428 | 0.357
14 | HRDSSYYWEIE [RAF1_Y340_Q335H] | 0.938 | 10.9 | 0.842 | 4.34 | 1.69 | 1.67 | 1.03 | 1.97 | 1.72 | 0.818 | 0.612 | 6.05 | 3.07 | 1.92 | 1.47 | 4.59
15 | ETDSEYVKLAK [C7orf57_Y70] | 0.676 | 0.479 | 0.816 | 0.478 | 0.934 | 0.817 | 0.69 | 0.433 | 0.492 | 0.588 | 0.335 | 0.377 | 0.441 | 0.391 | 0.425 | 0.398
16 | IHHIDYFKKTT [FGFR1_Y653_YF] | 0.526 | 0.526 | 0.585 | 0.642 | 0.718 | 0.822 | 0.613 | 0.561 | 0.385 | 0.501 | 0.398 | 0.481 | 0.36 | 0.545 | 0.52 | 0.444
17 | KKILCYIQGGS [HYDIN_Y4610_N4606K] | 0.495 | 0.459 | 0.802 | 0.758 | 1.31 | 1.46 | 1.17 | 0.499 | 0.609 | 1.07 | 0.58 | 0.439 | 0.611 | 0.411 | 0.521 | 0.549
